Biological target: the molecule itself
Test: SEC; gel filtration of purified YfhQ on Superdex 200 in buffer B (50 mM Tris-HCl pH 7.5, 150 mM NaCl, 10 mM MgCl2, 10% glycerol); self-association, dimer

B1: YfhQ protein of Escherichia coli, His-tagged (enzyme, UniProt P0AE01 1-246, looked up)
chain: MLQNIRIVLVETSHTGNMGSVARAMKTMGLTNLWLVNPLVKPDSQAIALAAGASDVIGNAHIVDTLDEALAGCSLVVGTSARSRTLPWPMLDPRECGLKSVAEAANTPVALVFGRERVGLTNEELQKCHYHVAIAANPEYSSLNLAMAVQVIAYEVRMAWLATQENGEQVEHEETPYPLVDDLERFYGHLEQTLLATGFIRENHPGQVMNKLRRLFTRARPESQELNILRGILASIEQQNKGNKAE
notes: YfhQ (TrmJ), SPOUT superfamily methyltransferase of Escherichia coli; yfhQ gene in the pCA24N vector; theoretical mass of the His-tagged monomer 29.168 kDa; also called TrMet(Xm32); TrmJ; source: E. coli BL21 (DE3), purified (Ni2+ Chelating Sepharose, Superdex 200 gel filtration)
stoichiometry N: 2
